Results taken from publication PMC2731163, “HoxA-11 and FOXO1A Cooperate to Regulate Decidual Prolactin Expression: Towards Inferring the Core Transcriptional Regulators of Decidual Genes” (PLoS ONE, 2009).

Target: N-terminal Flag tagged human FOXO1A (human, UniProt Q12778 1-655)
Test: cell-based or functional assay

N-terminal Flag tagged human FOXO1A, sequence (Q12778 whole entry): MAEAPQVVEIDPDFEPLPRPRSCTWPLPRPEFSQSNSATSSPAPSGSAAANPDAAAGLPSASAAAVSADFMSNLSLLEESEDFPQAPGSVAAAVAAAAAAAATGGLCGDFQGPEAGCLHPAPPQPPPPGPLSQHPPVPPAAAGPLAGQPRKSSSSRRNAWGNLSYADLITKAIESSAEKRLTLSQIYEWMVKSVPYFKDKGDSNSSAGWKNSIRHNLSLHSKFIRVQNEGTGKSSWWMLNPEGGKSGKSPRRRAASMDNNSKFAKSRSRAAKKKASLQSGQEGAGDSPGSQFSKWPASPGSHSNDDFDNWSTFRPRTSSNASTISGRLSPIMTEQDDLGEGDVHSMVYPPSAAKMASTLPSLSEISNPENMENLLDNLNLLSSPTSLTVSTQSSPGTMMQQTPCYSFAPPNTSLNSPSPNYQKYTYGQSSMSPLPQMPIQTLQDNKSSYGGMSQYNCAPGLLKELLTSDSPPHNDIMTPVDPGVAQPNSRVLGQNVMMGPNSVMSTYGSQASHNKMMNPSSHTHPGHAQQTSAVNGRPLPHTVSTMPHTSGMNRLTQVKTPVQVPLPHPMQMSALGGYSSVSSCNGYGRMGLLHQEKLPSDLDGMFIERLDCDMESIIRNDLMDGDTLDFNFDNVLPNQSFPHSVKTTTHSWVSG

luciferase expression from the dPRL-332/luc3 decidual PRL enhancer reporter in HeLa cells cotransfected with HoxA-11 and FOXO1A, fold change relative to empty expression vector: > 3 fold
B1: HoxA11-V5/His fusion protein (natural protein)
chain: not shown
